Literature values in paper PMC3433420.
Read-outs that look alike come from different tables or passages of the source.

Key:
Conditions in all cases: cited from earlier work
SYK-C (Homo sapiens) = SYK-C (Homo sapiens) (UniProt P43405)
ABL2 (Homo sapiens) [1] = biological target: ABL2 (Homo sapiens) (UniProt P42684)
PIK3R1-NC (Homo sapiens) [2] = biological target: PIK3R1-NC (Homo sapiens) (UniProt P27986)
PIK3R3-N (Homo sapiens) [3] = biological target: PIK3R3-N (Homo sapiens) (UniProt Q92569)
PIK3R1-C (Homo sapiens) = PIK3R1-C (Homo sapiens) (UniProt P27986)
Chain of PIK3R1-C (Homo sapiens) (P27986 328-723): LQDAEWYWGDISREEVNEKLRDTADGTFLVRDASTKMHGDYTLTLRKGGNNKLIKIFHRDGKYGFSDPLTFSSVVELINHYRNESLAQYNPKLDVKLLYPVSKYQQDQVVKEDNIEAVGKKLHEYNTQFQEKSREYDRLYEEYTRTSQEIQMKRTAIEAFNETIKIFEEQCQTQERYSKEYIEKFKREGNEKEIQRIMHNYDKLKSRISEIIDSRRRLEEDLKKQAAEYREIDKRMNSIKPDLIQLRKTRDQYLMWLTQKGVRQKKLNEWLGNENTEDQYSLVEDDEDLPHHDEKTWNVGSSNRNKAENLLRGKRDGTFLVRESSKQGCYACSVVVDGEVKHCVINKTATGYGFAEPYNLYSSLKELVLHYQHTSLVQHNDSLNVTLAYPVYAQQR

PIK3R3-NC (Homo sapiens) [4] = biological target: PIK3R3-NC (Homo sapiens) (UniProt Q92569)
PIK3R3-C (Homo sapiens) = PIK3R3-C (Homo sapiens) (UniProt Q92569)
PIK3R2-NC (Homo sapiens) [5] = biological target: PIK3R2-NC (Homo sapiens) (UniProt O00459)
Chain of PIK3R2-NC (Homo sapiens) (O00459 325-721): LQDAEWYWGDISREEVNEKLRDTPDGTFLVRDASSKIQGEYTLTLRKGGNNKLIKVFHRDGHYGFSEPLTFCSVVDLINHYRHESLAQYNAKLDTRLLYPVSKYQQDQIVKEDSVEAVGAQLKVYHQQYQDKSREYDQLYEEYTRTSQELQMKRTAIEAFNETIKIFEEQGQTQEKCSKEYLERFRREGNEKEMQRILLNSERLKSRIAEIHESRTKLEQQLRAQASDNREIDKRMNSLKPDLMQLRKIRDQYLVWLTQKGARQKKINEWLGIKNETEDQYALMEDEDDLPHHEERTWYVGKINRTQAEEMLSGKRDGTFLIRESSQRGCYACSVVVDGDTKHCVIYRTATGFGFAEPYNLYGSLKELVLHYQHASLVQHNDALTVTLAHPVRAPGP

SHB (Homo sapiens) = SHB (Homo sapiens) (UniProt Q15464)
Chain of SHB (Homo sapiens) (Q15464 405-509): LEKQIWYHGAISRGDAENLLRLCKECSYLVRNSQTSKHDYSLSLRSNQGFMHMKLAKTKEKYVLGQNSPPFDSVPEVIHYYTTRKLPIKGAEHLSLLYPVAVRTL

PIK3R3-NC (Homo sapiens) [6] = biological target: PIK3R3-NC (Homo sapiens) (UniProt Q92569); remark: listed apart in the source
SHC1-PTB (Homo sapiens) = SHC1-PTB (Homo sapiens) (UniProt P29353)
Chain of SHC1-PTB (Homo sapiens) (P29353 483-583): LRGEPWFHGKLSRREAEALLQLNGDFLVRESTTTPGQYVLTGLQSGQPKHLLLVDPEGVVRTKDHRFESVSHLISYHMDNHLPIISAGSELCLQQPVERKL

PIK3R3-N (Homo sapiens) [7] = biological target: PIK3R3-N (Homo sapiens) (UniProt Q92569); remark: listed apart in the source
SHF (Homo sapiens) = SHF (Homo sapiens) (UniProt Q7M4L6)
Chain of SHF (Homo sapiens) (Q7M4L6 318-423): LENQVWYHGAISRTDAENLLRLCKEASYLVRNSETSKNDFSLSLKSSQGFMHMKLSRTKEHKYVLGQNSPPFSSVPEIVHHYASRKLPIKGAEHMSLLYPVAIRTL

PIK3R2-N (Homo sapiens) [8] = biological target: PIK3R2-N (Homo sapiens) (UniProt O00459)
Chain of PIK3R2-N (Homo sapiens) (O00459 325-721): as the sequence (O00459 325-721) above

ITK (Homo sapiens) [9] = biological target: ITK (Homo sapiens) (UniProt Q08881)
Chain of ITK (Homo sapiens) (Q08881 234-343): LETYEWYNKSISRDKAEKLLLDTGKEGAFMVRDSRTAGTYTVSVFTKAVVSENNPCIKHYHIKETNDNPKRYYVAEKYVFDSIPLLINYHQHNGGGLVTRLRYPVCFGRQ

PIK3R1-N (Homo sapiens) [10] = biological target: PIK3R1-N (Homo sapiens) (UniProt P27986)
Chain of PIK3R1-N (Homo sapiens) (P27986 328-723): as the sequence (P27986 328-723) above

PIK3R2-N (Homo sapiens) [11] = biological target: PIK3R2-N (Homo sapiens) (UniProt O00459); remark: listed apart in the source
PIK3R1-NC (Homo sapiens) [12] = biological target: PIK3R1-NC (Homo sapiens) (UniProt P27986); remark: listed apart in the source
ABL2 (Homo sapiens) [13] = biological target: ABL2 (Homo sapiens) (UniProt P42684); remark: listed apart in the source
GRB7 (Homo sapiens) [14] = biological target: GRB7 (Homo sapiens) (UniProt Q14451)
Chain of GRB7 (Homo sapiens) (Q14451 426-532): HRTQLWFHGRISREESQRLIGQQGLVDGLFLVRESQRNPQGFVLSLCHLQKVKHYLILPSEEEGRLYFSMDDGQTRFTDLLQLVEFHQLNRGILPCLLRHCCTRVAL

TENC1 (Homo sapiens) [15] = biological target: TENC1 (Homo sapiens) (UniProt Q63HR2)
Chain of TENC1 (Homo sapiens) (Q63HR2 1135-1252): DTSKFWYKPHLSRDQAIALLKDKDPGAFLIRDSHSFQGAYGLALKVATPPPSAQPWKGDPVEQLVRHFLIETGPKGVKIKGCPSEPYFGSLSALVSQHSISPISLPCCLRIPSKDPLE

YES1 (Homo sapiens) = YES1 (Homo sapiens) (UniProt P07947)
Chain of YES1 (Homo sapiens) (P07947 153-260): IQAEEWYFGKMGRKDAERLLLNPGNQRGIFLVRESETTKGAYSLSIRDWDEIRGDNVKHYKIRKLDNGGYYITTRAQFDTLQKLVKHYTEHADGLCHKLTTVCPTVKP

LYN (Homo sapiens) = LYN (Homo sapiens) (UniProt P07948)
Chain of LYN (Homo sapiens) (P07948 124-231): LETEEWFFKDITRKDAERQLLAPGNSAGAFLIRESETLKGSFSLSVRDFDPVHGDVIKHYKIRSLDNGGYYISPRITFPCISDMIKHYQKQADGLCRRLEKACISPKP

FGR (Homo sapiens) = FGR (Homo sapiens) (UniProt P09769)
PIK3R3-N (Homo sapiens) [16] = biological target: PIK3R3-N (Homo sapiens) (UniProt Q92569); remark: listed apart in the source
PIK3R2-NC (Homo sapiens) [17] = biological target: PIK3R2-NC (Homo sapiens) (UniProt O00459); remark: listed apart in the source
ABL2 (Homo sapiens) [18] = biological target: ABL2 (Homo sapiens) (UniProt P42684); remark: listed apart in the source
PIK3R1-NC (Homo sapiens) [19] = biological target: PIK3R1-NC (Homo sapiens) (UniProt P27986); remark: listed apart in the source
PIK3R2-N (Homo sapiens) [20] = biological target: PIK3R2-N (Homo sapiens) (UniProt O00459); remark: listed apart in the source
PIK3R3-NC (Homo sapiens) [21] = biological target: PIK3R3-NC (Homo sapiens) (UniProt Q92569); remark: listed apart in the source
BLK (Homo sapiens) = BLK (Homo sapiens) (UniProt P51451)
Chain of BLK (Homo sapiens) (P51451 119-225): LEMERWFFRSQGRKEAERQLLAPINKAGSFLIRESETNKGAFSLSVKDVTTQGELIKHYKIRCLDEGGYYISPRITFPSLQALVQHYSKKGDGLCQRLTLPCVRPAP

ITK (Homo sapiens) [22] = biological target: ITK (Homo sapiens) (UniProt Q08881); remark: listed apart in the source
PIK3R1-N (Homo sapiens) [23] = biological target: PIK3R1-N (Homo sapiens) (UniProt P27986); remark: listed apart in the source
GRB7 (Homo sapiens) [24] = biological target: GRB7 (Homo sapiens) (UniProt Q14451); remark: listed apart in the source
PIK3R3-NC (Homo sapiens) [25] = biological target: PIK3R3-NC (Homo sapiens) (UniProt Q92569); remark: listed apart in the source
ABL1 (Homo sapiens) = ABL1 (Homo sapiens) (UniProt P00519)
Chain of ABL1 (Homo sapiens) (P00519 122-222): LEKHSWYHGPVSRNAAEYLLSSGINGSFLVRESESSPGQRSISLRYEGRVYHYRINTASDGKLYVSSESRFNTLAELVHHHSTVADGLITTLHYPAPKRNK

PIK3R3-N (Homo sapiens) [26] = biological target: PIK3R3-N (Homo sapiens) (UniProt Q92569); remark: listed apart in the source
PIK3R2-N (Homo sapiens) [27] = biological target: PIK3R2-N (Homo sapiens) (UniProt O00459); remark: listed apart in the source
PLCG2-NC (Homo sapiens) = PLCG2-NC (Homo sapiens) (UniProt P16885)
Chain of PLCG2-NC (Homo sapiens) (P16885 527-740): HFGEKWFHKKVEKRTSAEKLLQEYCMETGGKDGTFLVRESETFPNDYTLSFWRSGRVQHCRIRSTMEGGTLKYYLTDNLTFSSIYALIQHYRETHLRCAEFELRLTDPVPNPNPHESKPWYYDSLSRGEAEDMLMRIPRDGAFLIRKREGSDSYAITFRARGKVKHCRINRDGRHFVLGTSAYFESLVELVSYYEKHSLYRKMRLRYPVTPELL

SYK-NC (Homo sapiens) [28] = biological target: SYK-NC (Homo sapiens) (UniProt P43405)
PIK3R1-N (Homo sapiens) [29] = biological target: PIK3R1-N (Homo sapiens) (UniProt P27986); remark: listed apart in the source
SRC (Homo sapiens) = SRC (Homo sapiens) (UniProt P12931)
PIK3R1-NC (Homo sapiens) [30] = biological target: PIK3R1-NC (Homo sapiens) (UniProt P27986); remark: listed apart in the source
RASA1-N (Homo sapiens) [31] = biological target: RASA1-N (Homo sapiens) (UniProt P20936)
Chain of RASA1-N (Homo sapiens) (P20936 176-446): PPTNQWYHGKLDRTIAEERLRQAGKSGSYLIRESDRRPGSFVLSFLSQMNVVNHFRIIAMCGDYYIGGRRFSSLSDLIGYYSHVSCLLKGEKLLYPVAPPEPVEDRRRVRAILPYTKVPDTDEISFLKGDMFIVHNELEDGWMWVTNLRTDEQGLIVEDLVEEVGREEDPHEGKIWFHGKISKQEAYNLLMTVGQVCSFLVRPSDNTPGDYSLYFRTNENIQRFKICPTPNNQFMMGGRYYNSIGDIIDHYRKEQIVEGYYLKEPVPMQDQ

PIK3R2-NC (Homo sapiens) [32] = biological target: PIK3R2-NC (Homo sapiens) (UniProt O00459); remark: listed apart in the source
SYK-NC (Homo sapiens) [33] = biological target: SYK-NC (Homo sapiens) (UniProt P43405); remark: listed apart in the source
TENC1 (Homo sapiens) [34] = biological target: TENC1 (Homo sapiens) (UniProt Q63HR2); remark: listed apart in the source
RASA1-N (Homo sapiens) [35] = biological target: RASA1-N (Homo sapiens) (UniProt P20936); remark: listed apart in the source

Chain of PIK3R1-NC (Homo sapiens) (P27986 328-723): as the sequence (P27986 328-723) above
Chain of ABL2 (Homo sapiens) (P42684 168-268): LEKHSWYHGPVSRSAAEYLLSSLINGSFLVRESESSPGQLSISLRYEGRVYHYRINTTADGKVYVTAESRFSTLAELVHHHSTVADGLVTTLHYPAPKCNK

For …pYMPMNQGN, the apparent Kd (screen) (SYK-C (Homo sapiens)) is listed as 1180 nM, the apparent Kd (screen) (ABL2 (Homo sapiens) [1]) is listed as 167 nM and the apparent Kd (screen) (PIK3R1-NC (Homo sapiens) [2]) is listed as 920 nM. The apparent Kd (screen) (PIK3R3-N (Homo sapiens) [3]) was 999 nM, the apparent Kd (screen) (PIK3R1-C (Homo sapiens)) was 999 nM and the apparent Kd (screen) (PIK3R3-NC (Homo sapiens) [4]) was 50 nM. The apparent Kd (screen) (PIK3R3-C (Homo sapiens)) was 109 nM, the apparent Kd (screen) (PIK3R2-NC (Homo sapiens) [5]) was 88 nM and the apparent Kd (screen) (SHB (Homo sapiens)) was 1370 nM. The apparent Kd (screen) (PIK3R3-NC (Homo sapiens) [6]) was 492 nM, the apparent Kd (screen) (SHC1-PTB (Homo sapiens)) was 2000 nM and the apparent Kd (screen) (PIK3R3-N (Homo sapiens) [7]) was 1320 nM. For the same substance, the apparent Kd (screen) (SHF (Homo sapiens)) was 1230 nM, the apparent Kd (screen) (PIK3R2-N (Homo sapiens) [8]) was 893 nM and the apparent Kd (screen) (ITK (Homo sapiens) [9]) was 1670 nM. The apparent Kd (screen) (PIK3R1-N (Homo sapiens) [10]) was 566 nM, the apparent Kd (screen) (PIK3R2-N (Homo sapiens) [11]) was 999 nM and the apparent Kd (screen) (PIK3R1-NC (Homo sapiens) [12]) was 105 nM. For the same substance, the apparent Kd (screen) (ABL2 (Homo sapiens) [13]) was 331 nM.
For …pYEYMNRRR, the apparent Kd (screen) (GRB7 (Homo sapiens) [14]) is listed as 99 nM, the apparent Kd (screen) (TENC1 (Homo sapiens) [15]) is listed as 1630 nM and the apparent Kd (screen) (YES1 (Homo sapiens)) is listed as 125 nM. The apparent Kd (screen) (LYN (Homo sapiens)) was 1070 nM, the apparent Kd (screen) (FGR (Homo sapiens)) was 709 nM and the apparent Kd (screen) (PIK3R3-N (Homo sapiens) [16]) was 201 nM. The apparent Kd (screen) (PIK3R2-NC (Homo sapiens) [17]) was 257 nM, the apparent Kd (screen) (ABL2 (Homo sapiens) [18]) was 1110 nM and the apparent Kd (screen) (PIK3R1-NC (Homo sapiens) [19]) was 254 nM. The apparent Kd (screen) (PIK3R2-N (Homo sapiens) [20]) was 239 nM, the apparent Kd (screen) (PIK3R3-NC (Homo sapiens) [21]) was 256 nM and the apparent Kd (screen) (BLK (Homo sapiens)) was 68 nM. For the same substance, the apparent Kd (screen) (ITK (Homo sapiens) [22]) was 155 nM, the apparent Kd (screen) (PIK3R1-N (Homo sapiens) [23]) was 674 nM and the apparent Kd (screen) (GRB7 (Homo sapiens) [24]) was 125 nM. The apparent Kd (screen) (PIK3R3-NC (Homo sapiens) [25]) was 499 nM, the apparent Kd (screen) (ABL1 (Homo sapiens)) was 1420 nM and the apparent Kd (screen) (PIK3R3-N (Homo sapiens) [26]) was 281 nM. The apparent Kd (screen) (PIK3R2-N (Homo sapiens) [27]) was 143 nM, the apparent Kd (screen) (PLCG2-NC (Homo sapiens)) was 614 nM and the apparent Kd (screen) (SYK-NC (Homo sapiens) [28]) was 1260 nM. For the same substance, the apparent Kd (screen) (PIK3R1-N (Homo sapiens) [29]) was 347 nM, the apparent Kd (screen) (SRC (Homo sapiens)) was 866 nM and the apparent Kd (screen) (PIK3R1-NC (Homo sapiens) [30]) was 499 nM. For the same substance, the apparent Kd (screen) (RASA1-N (Homo sapiens) [31]) was 516 nM, the apparent Kd (screen) (PIK3R2-NC (Homo sapiens) [32]) was 448 nM and the apparent Kd (screen) (SYK-NC (Homo sapiens) [33]) was 894 nM. For the same substance, the apparent Kd (screen) (TENC1 (Homo sapiens) [34]) was 1800 nM and the apparent Kd (screen) (RASA1-N (Homo sapiens) [35]) was 929 nM.
